Positions of bridges follow the written chain, without caps; N, C: chain ends. No end group written: not given here.
Key:
[1] = Cysteine effective concentration (Ceff) measurement, thiol-disulfide equilibrium relative to glutathione; assay type: physicochemical
Protocol: Cysteine Effective Concentration Measurements. Glutathione stock solutions were prepared by mixing 3 volumes of 0.2 M reduced glutathione (GSH) with 1 volume of 0.1 M oxidized glutatione (GSSG). Aliquots were stored at −80° C. and were stable for several months; use of a single batch eliminated any error in ΔΔG values that might arise from variability of total glutathione concentration. Thiol-disulfide equilibria were established by mixing 50 μL peptide stock (approximately 3 mM in water) with 50 μL glutathione stock, deoxygenating the acidic solution with vacuum/argon cycles from a Firestone valve, then adding 300 μL of deoxygenated buffer by syringe (0.2 M tris, pH 8.0; 1 mM EDTA; 67 mM tris base to titrate glutathione), followed by further deoxygenation of the mixture. The final pH of all reaction mixtures was 8.10±0.05. Solutions were stirred under argon and maintained at 20° C. in a water bath. After 1.5 h, successive aliquots (100 μL) were removed with a gastight syringe, immediately quenched by discharge into 400 μL of 3.1 mM HCl, and analyzed by HPLC with a minimum of delay. Ceff values were calculated from the molar ratios of the reduced and oxidized forms of peptide and glutathione (peak area ratios corrected for absorbance differences measured by HPLC), assuming 0.025 M total glutathione monomer (i.e., neglecting the minor amount (<1%) of glutathione present in mixed disulfides with peptide): Ceff=([peptideox]/[peptidered])×([GSH]^2/[GSSG]) [GSH]+2[GSSG]=0.025 M [GSSG]=0.025 M/{2+3.26 (GSH peak area/GSSG peak area)} [peptideox]/[peptidered]=equilibrium peak area ratio/absorbance ratio
Two or three samples from each reaction mixture were analyzed; there were no shifts in populations with time, and calculated Ceff values typically varied by less than 5% (equivalent to 30 cal/mol uncertainty in ΔΔG).

[2] = Circular dichroism spectra of peptides; assay type: physicochemical; conditions: 10° C.; 20 μM peptide in 20 mM potassium phosphate, pH 7.0
Protocol: Terminal serine and lysine residues were added to improve the solubility of some variants of the CD4 peptide, which are otherwise uncharged. A similar modification was made to bhpW as a control. Non-turn residues that differ between bhpW and the CD4 loop are underlined. Coelution of reduced and oxidized peptides prevented measurement of Ceff for the T2, N3 variant of the CD4 peptide. Circular dichroism spectra were acquired at 10° C. with an Aviv Instruments, Inc. Model 202 spectrophotometer; peptide concentrations were 20 μM in 20 mM potassium phosphate, pH 7.0.

[3] = Thiol-disulfide exchange equilibrium (GSH/GSSG): intramolecular disulfide formation; ddG=-RT ln(Ceff,X/Ceff,Leu), gly-asn turn peptides 1; conditions: the molecule shown is the open-chain precursor; 32-membered ring; water, ca. 0.15 M Tris, 1 mM EDTA, pH 8.10, 25 mM total glutathione; 0.375 mM; 20.0 °C; 1.5 h
[4] = Thiol-disulfide exchange equilibrium (GSH/GSSG redox buffer): intramolecular disulfide formation between two Cys of reduced peptide; Ceff=([pep_ox]/[pep_red])x([GSH]^2/[GSSG]), HPLC after acid quench; conditions: the molecule shown is the open-chain precursor; 32-membered ring; water, ca. 0.15 M Tris, 1 mM EDTA, pH 8.10, 25 mM total glutathione; 0.375 mM; 20.0 °C; 1.5 h
[5] = 1H NMR analysis of hairpin structure in solution; assay type: physicochemical; conditions: for structure in solution: NMR, ~2 mM peptide, pH 3.5
Protocol: NMR Spectroscopy. […] All spectra were acquired on a Bruker DRX-500 or a Varian Unity-400 spectrometer at 15° C. 2QF-COSY, TOCSY and ROESY spectra were acquired as described (Cavanagh et al. (1995) Protein NMR Spectroscopy, Principles and Practices (Academic Press, San Diego) with gradient coherence selection (van Zijl et al. (1995) J. Magn. Reson. 113A:265-270), or excitation sculpting (Hwang & Shaka, (1995) J. Magn. Reson. 112A, 275-279.) for water suppression. Proton resonances were assigned by standard methods (Wüthrich (1986) NMR of Proteins and Nucleic Acids (John Wiley and Sons, New York). 3JH^N-H^α were obtained by fitting Lorentzian lines to the antiphase doublets of HN—H^α peaks in 2QF-COSY spectra processed to high digital resolution in F2. ^3JH^N-H^α were extracted from COSY-35 spectra acquired on D2O solutions of the peptides. Distance and dihedral angle restraints were generated as described (Skelton et al. (1994) Biochemistry 33:13581-13592). 100 initial structures were calculated using the hybrid distance geometry/simulated annealing program DGII (Havel et al. (1991) Prog. Biophys. Mol. Biol. 56:43-78.); 80 of these were further refined by restrained molecular dynamics using the AMBER all-atom forcefield implemented in DISCOVER as described previously (Skelton et al. (1994) Biochemistry 33:13581-13592.). […]
Structure Calculation. Structures were calculated with 78 ROE-derived distance restraints (10 medium- and 28 long-range restraints; upper bounds of 5.4, 4.3, 3.4 or 3.0 Å) and 12 dihedral angle restraints. […]
NMR Analysis. […] Spectra were acquired and analyzed as described above. The structure of cd2 was calculated from 84 (including 13 medium- and 23 long-range) ROE-derived distance restraints and 13 dihedral angle restraints. […]
Analysis of Sidechain Rotamers. […] Given the large number of backbone-backbone distance and Φ dihedral angle restraints, the structures calculated for bhpw and cd2 do accurately represent the solution conformation of these peptides, except in the over determination of some side chain orientations.

[6] = system: CD4; conditions: normal CD4 interactions and CD4-mediated cell entry by HIV; cited from earlier work
[7] = Table 2, bhpW and CD4 C′-C″ loop peptides, pH 8.10, 20° C.

Compound: SCTWEGNKLTCK-NH2 (disulfide 2-11 (inferred)) [bhpW with terminal serine and lysine added as a control]
- Ceff [1, 7]: 273 ± 2 mM
- [θ]215 [2]: −17,400 deg cm^2 dmol^−1

Compound: CC(=O)N[C@@H](CS)C(=O)N[C@H](C(=O)N[C@@H](CC(C)C)C(=O)N[C@@H](CCC(=O)O)C(=O)NCC(=O)N[C@@H](CC(N)=O)C(=O)N[C@@H](CCCCN)C(=O)N[C@@H](CC(C)C)C(=O)N[C@H](C(=O)N[C@@H](CS)C(N)=O)[C@@H](C)O)[C@@H](C)O [Ac-CTLEGNKLTC-NH2]
- ring closure, dG (kcal/mol relative to X=Leu) [3]: 0
- ring closure, Ceff [4]: 85 mM

Compound: CC(=O)N[C@@H](CS)C(=O)N[C@H](C(=O)N[C@@H](Cc1c[nH]c2ccccc12)C(=O)N[C@@H](CCC(=O)O)C(=O)NCC(=O)N[C@@H](CC(N)=O)C(=O)N[C@@H](CCCCN)C(=O)N[C@@H](CC(C)C)C(=O)N[C@H](C(=O)N[C@@H](CS)C(N)=O)[C@@H](C)O)[C@@H](C)O [Ac-CTWEGNKLTC-NH2]
- ring closure, dG (kcal/mol relative to X=Leu) [3]: -0.53
- ring closure, Ceff [4]: 210 mM

Compound: SCTWQGSFLTCK-NH2 (disulfide 2-11 (inferred)) [cd2a]
- Ceff [1, 7]: 120 ± 0 mM
- [θ]215 [2]: −14,000 deg cm^2 dmol^−1

Compound: SCTNQGSFLTCK-NH2 (disulfide 2-11 (inferred)) [T2, N3 variant of the CD4 peptide]
- [θ]215 [2]: −5,000 deg cm^2 dmol^−1

Compound: CC(=O)N[C@@H](CS)C(=O)N[C@H](C(=O)N[C@@H](Cc1ccc(O)cc1)C(=O)N[C@@H](CCC(=O)O)C(=O)NCC(=O)N[C@@H](CC(N)=O)C(=O)N[C@@H](CCCCN)C(=O)N[C@@H](CC(C)C)C(=O)N[C@H](C(=O)N[C@@H](CS)C(N)=O)[C@@H](C)O)[C@@H](C)O [Ac-CTYEGNKLTC-NH2]
- ring closure, dG (kcal/mol relative to X=Leu) [3]: -0.08
- ring closure, Ceff [4]: 98 mM

Compound: Ac-CGNQGSFLTC-NH2 (disulfide 1-10 (inferred)) [cd1, disulfide-constrained peptide based on native CD4 hairpin residues 38-45]
- structure in solution [5]: essentially unstructured

Compound: SCGNQGSFLTCK-NH2 (disulfide 2-11 (inferred)) [cd1a]
- Ceff [1, 7]: 45 ± 4 mM
- [θ]215 [2]: −1,500 deg cm^2 dmol^−1

Compound: Ac-CTWQGSFLTC-NH2 (disulfide 1-10 (inferred)) [cd2, cd1 with substitutions G2T and N3W]
- [θ]215 [2]: −15,800 deg cm^2 dmol^−1
- structure in solution [5]: well-ordered

Compound: SCGWQGSFLTCK-NH2 (disulfide 2-11 (inferred))
- Ceff [1, 7]: 48 ± 0 mM
- [θ]215 [2]: −6,100 deg cm^2 dmol^−1

Compound: Ac-CTWEGNKLTC-NH2 (disulfide 1-10 (inferred)) [bhpW, tryptophan analog of the model β-hairpin peptide bhp]
- Ceff ([1]; Table 1, bhp peptides varied at residue 3, pH 8.10, 20° C.): 210 ± 4 mM
- Ceff [1, 7]: 210 ± 4 mM
- [θ]215 [2]: −19,800 deg cm^2 dmol^−1
- hairpin conformation population ([5]; 15° C., estimate): > 80%

Compound: CC(=O)N[C@@H](CS)C(=O)N[C@H](C(=O)N[C@H](C(=O)N[C@@H](CCC(=O)O)C(=O)NCC(=O)N[C@@H](CC(N)=O)C(=O)N[C@@H](CCCCN)C(=O)N[C@@H](CC(C)C)C(=O)N[C@H](C(=O)N[C@@H](CS)C(N)=O)[C@@H](C)O)C(C)C)[C@@H](C)O [Ac-CTVEGNKLTC-NH2]
- ring closure, dG (kcal/mol relative to X=Leu) [3]: 0.09
- ring closure, Ceff [4]: 73 mM

Compound: CC(=O)N[C@@H](CS)C(=O)N[C@H](C(=O)N[C@H](C(=O)N[C@@H](CCC(=O)O)C(=O)NCC(=O)N[C@@H](CC(N)=O)C(=O)N[C@@H](CCCCN)C(=O)N[C@@H](CC(C)C)C(=O)N[C@H](C(=O)N[C@@H](CS)C(N)=O)[C@@H](C)O)[C@@H](C)O)[C@@H](C)O [Ac-CTTEGNKLTC-NH2]
- ring closure, dG (kcal/mol relative to X=Leu) [3]: 0.3

Compound: CC(=O)N[C@@H](CS)C(=O)N[C@H](C(=O)N[C@@H](CC(=O)O)C(=O)N[C@@H](CCC(=O)O)C(=O)NCC(=O)N[C@@H](CC(N)=O)C(=O)N[C@@H](CCCCN)C(=O)N[C@@H](CC(C)C)C(=O)N[C@H](C(=O)N[C@@H](CS)C(N)=O)[C@@H](C)O)[C@@H](C)O [Ac-CTDEGNKLTC-NH2]
- ring closure, dG (kcal/mol relative to X=Leu) [3]: 0.32

Compound: FCYICEVEDQCY (also: cyclic, type and places not given here) [cyclic peptide from loops of domain 1 of human CD4]
- antagonism of CD4 interactions [6]: antagonize

— patent publication US7235626B1, “Structured peptide scaffold for displaying turn libraries on phage” (Genentech, Inc., priority 1999, dated 2007)
